Source: US20180364250

Target: ubiquitin-D77

B1: YUH1 (protein)
chain: MSGENRAVVPIESNPEVFTNFAHKLGLKNEWAYFDIYSLTEPELLAFLPRPVKAIVLLFPINEDRKSSTSQQITSSYDVIWFKQSVKNACGLYAILHSLSNNQSLLEPGSDLDNFLKSQSDTSSSKNRFDDVTTDQFVLNVIKENVQTFSTGQSEAPEATADTNLHYITYVEENGGIFELDGRNLSGPLYLGKSDPTATDLIEQELVRVRVASYMENANEEDVLNFAMLGLGPNWE
Question: With B1 as the protein, how does the “fluorescence intensity over time (real-time deubiquitinase assay with 500 nM ubiquitin-D77, 10 nM fluorescein-tagged ubiquitin, 10 nM tIVR)” value read?
Answer: Its value is “Activity of YUH1 released ubiquitin proteins from conjugation to aspartic acid (i.e., the D77 residue), and thus increased the concentration of free ubiquitin protein”.
